Measured values as given in publication PMC9943657, “Structural basis for topological regulation of Tn3 resolvase”.

Tests used:
[1] = target: T1, Tn3 resolvase (crystallized) (Tn3 transposon, UniProt P0ADI2 1-185); experiment: X-ray crystallography; Form II, ~4.0/4.5/4.0 A, two dimer-DNA complexes per asymmetric unit; Crystal DNA annealed at 1 mM in TE (Tris-HCl pH 8.0, EDTA), 50 mM NaCl; footprinting: synapses crosslinked with glutaraldehyde, DNase I + 10 mM MgCl2; binding buffers and temperature not in material; details: protein: recombinant; chain copies: 2; label: none for native; 25 bp, 2-nt 5' overhang at each end
T1 sequence (P0ADI2 whole entry): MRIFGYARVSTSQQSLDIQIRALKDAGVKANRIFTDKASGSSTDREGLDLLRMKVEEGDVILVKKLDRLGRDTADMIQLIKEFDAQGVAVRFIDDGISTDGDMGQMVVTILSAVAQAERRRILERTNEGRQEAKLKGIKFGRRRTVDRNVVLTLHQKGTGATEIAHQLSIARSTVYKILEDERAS

[2] = target: T1, Tn3 resolvase (crystallized); experiment: X-ray crystallography; Form I, ~3.4 A, one dimer-DNA complex per asymmetric unit; Crystal DNA annealed at 1 mM in TE (Tris-HCl pH 8.0, EDTA), 50 mM NaCl; footprinting: synapses crosslinked with glutaraldehyde, DNase I + 10 mM MgCl2; binding buffers and temperature not in material; details: protein: recombinant; chain copies: 2; label: none for native; 29 bp, 1-nt 5' overhang at each end

Binder	binding result [1]	binding result [2]
Tn3 res site III, Form II duplex (dsDNA) DNA 1: ATTGTCTGATATTCGATTTAAGGTACA DNA 2: ATTGTACCTTAAATCGAATATCAGACA	binds	
Tn3 res site III, Form I duplex (dsDNA) DNA 1: TCGTGTCTGATATTCGATTTAAGGTACATT DNA 2: AAATGTACCTTAAATCGAATATCAGACACG		binds
